# Data as given in patent US20230235054A1 (BIOATLA, published 2023).
# Numbering of substitutions follows the chain as printed.
# T1: RatNectin4-His (rat, UniProt D3ZET1 31-348)
# T1 construct: Immobilized on the SPR chip; not shown: His tag
# T1 sequence: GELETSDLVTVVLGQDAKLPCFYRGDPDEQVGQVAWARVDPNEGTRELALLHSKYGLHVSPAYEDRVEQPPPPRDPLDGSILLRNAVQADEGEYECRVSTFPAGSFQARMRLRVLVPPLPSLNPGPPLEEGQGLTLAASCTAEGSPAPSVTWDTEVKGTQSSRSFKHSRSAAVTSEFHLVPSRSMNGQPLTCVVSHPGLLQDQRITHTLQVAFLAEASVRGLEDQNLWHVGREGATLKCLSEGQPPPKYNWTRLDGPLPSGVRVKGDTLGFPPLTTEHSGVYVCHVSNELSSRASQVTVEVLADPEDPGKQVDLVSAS
# T2: recombinant human Nectin4 antigen (human, UniProt Q96NY8 32-349)
# T2 construct: construct not described
# T2 sequence (looked up): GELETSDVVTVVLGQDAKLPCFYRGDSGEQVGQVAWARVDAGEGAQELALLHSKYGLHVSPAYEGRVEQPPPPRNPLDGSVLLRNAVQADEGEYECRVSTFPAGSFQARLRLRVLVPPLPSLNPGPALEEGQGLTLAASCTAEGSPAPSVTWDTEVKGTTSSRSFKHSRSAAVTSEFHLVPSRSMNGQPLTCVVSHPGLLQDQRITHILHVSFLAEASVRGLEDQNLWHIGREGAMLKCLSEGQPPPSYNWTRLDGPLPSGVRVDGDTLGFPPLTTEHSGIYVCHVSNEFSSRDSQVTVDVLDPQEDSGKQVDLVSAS
# T3: cyno Nectin-4 on cells (cyno, UniProt A0A2K5WES1 32-510)
# T3 construct: whole, on cells; also called HEK293 cells expressing cyno Nectin-4; cyno Nectin-4 cells
# T3 sequence: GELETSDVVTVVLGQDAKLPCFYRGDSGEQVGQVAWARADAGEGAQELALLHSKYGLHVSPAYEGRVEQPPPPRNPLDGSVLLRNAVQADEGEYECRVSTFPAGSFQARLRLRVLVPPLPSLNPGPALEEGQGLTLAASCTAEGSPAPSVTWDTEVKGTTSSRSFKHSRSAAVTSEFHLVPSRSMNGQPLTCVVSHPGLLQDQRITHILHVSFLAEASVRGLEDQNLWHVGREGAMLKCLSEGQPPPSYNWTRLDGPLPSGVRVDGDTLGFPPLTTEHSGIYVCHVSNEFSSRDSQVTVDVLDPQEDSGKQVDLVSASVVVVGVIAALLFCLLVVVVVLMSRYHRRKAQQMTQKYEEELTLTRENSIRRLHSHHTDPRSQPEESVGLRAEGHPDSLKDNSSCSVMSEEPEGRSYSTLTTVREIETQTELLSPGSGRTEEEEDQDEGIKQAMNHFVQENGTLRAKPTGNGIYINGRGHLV
# B1: BAP-143-wildtype (antibody, V domains shown)
# VH: EVQLVESGGGLVQPGGSLRLSCAASGFTFSSYNMNWVRQAPGKGLEWVSYISSSSSTIYYADSVKGRFTISRDNAKNSLSLQMNSLRDEDTAVYYCARAYYYGMDVWGQGTTVTVSS
# VL: DIQMTQSPSSVSASVGDRVTITCRASQGISGWLAWYQQKPGKAPKFLIYAASTLQSGVPSRFSGSGSGTDFTLTISSLQPEDFATYYCQQANSFPPTFGGGTKVEIK
# notes: 150 kDa used in SPR; also called BAP143-00-00; benchmark (BM)
# B2: BAP-143-06-24-16 (antibody, V domains shown)
# VH: EVQLVQSGAEVKKPGATVKISCKVSGFTFSSYNMNWIRQSPSRGLEWLGYISSSSSTIYYADSVKGRFTISRDNSKNTLYLQMNSLRAEDTAVYYCARAYYYGDDVWGQGTLVTVSS
# VL: B1 VL with R24H
# notes: Used as a conjugate with a linker payload (CAB ADC)
# B3: BAP-143-07-03-12 (antibody, V domains shown)
# VH: B1 VH with V106K
# VL: B1 VL with L33E
# notes: as for B2
# B4: BAP-143-00-01 (antibody, V domains shown)
# VH: B1 VH
# VL: B1 VL with L33E
# notes: as for B2
# B5: BAP-143-06-33-16 (antibody, V domains shown)
# VH: B2 VH
# VL: B1 VL with L33E
# notes: as for B2
# B6: BAP-143-06-33-03 (antibody, V domains shown)
# VH: QVQLVQSGAEVKKPGASVKVSCKASGFTFSSYNMNWVRQARGQRLEWIGYISSSSSTIYYADSVKGRFTISRDNSKNTLYLQMNSLRAEDTAVYYCARAYYYGMDKWGQGTLVTVSS
# VL: B1 VL with F94E
# notes: as for B2
# Target: T1, RatNectin4-His
# Assay: SPR, RatNectin4-His immobilized, pH 7.4
# Description: All injections were done at a flow rate of 25 μL/min at 25° C. The sensor surface was activated with 1-ethyl-3-(3-dimethylaminopropyl)-carbodiimide (EDC) and N-hydroxysuccinimide (NHS) (200 mM/50 mM) for 480 seconds. HuNectin4-His (2 μg/mL in 10 mM NaAc, pH4.5) was injected for 480s and the surface was inactivated by injecting 1M ethanolamine-HCl for 480s. CynoNectin4 was immobilized using the same conditions as described for huNectin4-His, except that the cynoNectin4 was diluted into 10 mM NaAc buffer having pH 5.0. The control surface was activated and deactivated using the same conditions, but without injecting protein. PBST buffer (PBS pH 7.4 with 0.05% TWEEN20™) was used as running buffer for the surface preparation. The running solution was switched to PBST with 30 mM sodium bicarbonate with the pH adjusted as indicated in the figures before the analyte injections. The instrument was equilibrated with the running solution for one hour before the first analyte injection.
# The off-rate was measured for 360s. The chip surface was regenerated after each cycle of interaction analysis by injecting 6 μL of 10 mM glycine (pH 2.0). Flow cells 1 and 3 without immobilized protein were used as control surfaces for reference subtraction.
# In addition, data with buffer only as analyte (0 nM analyte) was subtracted from each run. Double subtracted data was fitted with the provided analysis software Analyzer R2 (Sierra Sensors) using a 1:1 binding model. A molecular weight of 150 kDa was used to calculate the molar concentrations of the analytes. RatNectin4-His was immobilized in FC3 using the same conditions as described for cynoNectin4.
Kd,koff,kon,Binder
0.135 nM,–,–,B1
0.171 nM,0.000178 s⁻¹,1.04e+06 M⁻¹ s⁻¹,B2
1.31 nM,0.000731 s⁻¹,557000 M⁻¹ s⁻¹,B3
2.42 nM,0.000875 s⁻¹,361000 M⁻¹ s⁻¹,B4
1.94 nM,0.000261 s⁻¹,135000 M⁻¹ s⁻¹,B5

# Target: T2, recombinant human Nectin4 antigen
# Assay: pH range ELISA, 30 ng/mL, pH of 50% binding activity
# Description: 1) Coat ELISA plates with 100 μL of 1 μg/mL recombinant human Nectin4 antigen in carbonate-bicarbonate coating buffer [0462] 2) Cover plates with sealing film and incubate overnight at 4° C. […] 3) Decant plates and tap out residual liquid on a stack of paper towels [0464] 4) Wash wells twice by dispensing 200 μL of various pH incubation buffer to the wells and completely aspirate the contents [0465] 5) Add 200 μL of various pH incubation buffers (pH5.5, 6.0, 6.2, 6.5, 6.7, 7.0 and 7.4) to the wells. Cover with sealing film and place the plate onto a plate shaker (set to 200 rpm) for 60 minutes at room temperature [0466] 6) Decant plates and tap out residual liquid on a stack of paper towels [0467] 7) Serially dilute test substances in various pH incubation buffers (pH5.5, 6.0, 6.2, 6.5, 6.7, 7.0 and 7.4) to 30 ng/mL [0468] 8) Add 100 μL/well of diluted test substances to the plates [0469] 9) Cover with sealing film and place the plates onto a plate shaker (set to 200 rpm) for 60 minutes at room temperature. [0470] 10) Decant plates and tap out residual liquid on a stack of paper towels. […] 12) Dilute the HRP secondary antibody at 1:2500 in various pH incubation buffers (pH5.5, 6.0, 6.2, 6.5, 6.7, 7.0 and 7.4) [0473] 13) Add 100 μL HRP secondary antibody diluted in various pH incubation buffers (pH5.5, 6.0, 6.2, 6.5, 6.7, 7.0 and 7.4) to each well. […] 14) Cover with sealing film and place the plates onto a plate shaker (set to 200 rpm) for 60 minutes at room temperature. [0475] 15) Decant plates and tap out residual liquid on a stack of paper towels. […] 16) Wash wells three times by dispensing 200 μL of various pH wash buffer (pH5.5, 6.0, 6.2, 6.5, 6.7, 7.0 and 7.4) to the wells and completely aspirating the contents [0477] 17) Dispense 50 μL per well of the TMB substrate solution into all wells of plates.
row,pH inflection point,Binder
1,6.85 pH,B6
2,6.51 pH,B3
3,6.58 pH,B4
4,6.6 pH,B5

# Target: T3, cyno Nectin-4 on cells
# Assay: FACS, HEK293 cells expressing cyno Nectin-4
row,Ratio (pH 7.4/6.0) of EC50,Binder
1,1.4,B2
2,2.7,B6
3,1.8,B3
4,2,B4
5,1.5,B5
